This is an account of results in US20090012270A1 (MEDICAL RESEARCH COUNCIL, published 2009).

The assay addresses T1, mouse OX2 (mouse, UniProt O54901 31-278).
T1 construct: whole, on cells; also called ligand OX2 (mouse); normally expressed mouse OX2
T1 sequence (looked up): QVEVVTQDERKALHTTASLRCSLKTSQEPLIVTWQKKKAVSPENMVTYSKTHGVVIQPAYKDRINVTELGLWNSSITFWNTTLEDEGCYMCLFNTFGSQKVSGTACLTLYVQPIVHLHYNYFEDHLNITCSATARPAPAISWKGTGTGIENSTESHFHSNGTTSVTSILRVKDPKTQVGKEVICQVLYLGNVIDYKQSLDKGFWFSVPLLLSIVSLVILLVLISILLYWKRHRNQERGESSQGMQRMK
Kind of assay: immunoperoxidase staining of mouse spleen sections, detected with anti-human Fc. As for the experimental part:
To determine function of OX2-OX2R interaction in vitro and in vivo, an adenovirus construct was prepared that produced in soluble form, the extracellular region of OX2RH1 fused to human IgG. A control construct was prepared that produced in soluble form, only the human IgG backbone. In the first instance, supernatants containing these fusion proteins were produced by cellular infection in vitro to test whether the OX2R fusion protein had biological function on the basis of binding to normally expressed mouse OX2. In the first series of studies, tissue sections of mouse spleen from normal as well as OX2-gene knockout (KO) mice, were prepared and OX2R, or control fusion proteins were added, and these reagents detected by addition of an antibody binding to the human Fc portion of the fusion protein, and subsequent immunoperoxidase staining procedures to reveal binding. Weak binding only of the OX2R fusion protein, and only in normal but not OX2 KO mice, was detected on follicular dendritic cells and endothelial cells. Both cell types are know to express very high levels of the ligand OX2.

B1: human IgG-mouse OX2RH1 fusion protein (extracellular region of OX2RH1 fused to human IgG) (Fc fusion)
chain: TDKNQTTQNNSSSPLTQVNTTVSVQIGTKALLCCFSIPLTKAVLITWIIKLRGLPSCTIAYKVDTKTNETSCLGRNITWASTPDHSPELQISAVTLQHEGTYTCETVTPEGNFEKNYDLQVLVPPEVTYFPEKNRSAVCEAMAGKPAAQISWSPDGDCVTTSESHSNGTVTVRSTCHWEQNNVSDVSCIVSHLTGNQSLSIELSRGGNQSLRP
notes: Soluble protein from cells infected with an adenovirus construct; also called OX2R fusion protein; Ig-OX2R fusion protein; not shown: human IgG backbone with the human Fc portion
As for B1, the binding result was “binds”.
